Measured values as given in patent publication US20090304687A1, “METHODS OF USING CD40 BINDING AGENTS” (Seattle Genetics , Inc., priority 2005, published 2009).
Where “and” joins values, the source holds several entries; their conditions need not be identical. Equal entries are not always repeated. Entries after “also recorded” stand apart in the source; their conditions may differ.

How the values were obtained:
[1] = tested on: Ramos Burkitt's lymphoma cells; experiment: Combination therapy with CHOP or prednisone, subcutaneous Ramos Burkitt's lymphoma in SCID mice; format: in vivo, C.B.-17 SCID mice
Description: To model localized lymphoma, 5×10^6 Ramos Burkitt's lymphoma cells were implanted subcutaneously into the right flank of C.B.-17 SCID mice (Harlan, Indianapolis, Ind.). Therapy was initiated when the mean tumor size in each group of five animals was 100 mm^3. CHOP was used for a single course, alone or in combination with humanized CD40 antibody (hu sgn-0; SGN-40), using the following dose schedule: cyclophosphamide at 30 mg/kg, i.v. qld x 1; doxorubicin at 2.475 mg/kg, i.v. qld x 1; vincristine at 0.375 mg/kg, i.v. qld x 1; and prednisone at 0.15 mg/kg, p.o. q1d x 5. The CD40 antibody was administered i.p. at 4 mg/kg q4d x 4 when used alone or in combination with prednisone or CHOP. Tumor size was determined using the formula (L×W^2)/2.
To compare the effect of SGN-40 treatment alone or in combination with CHOP or prednisone, SCID mice were subcutaneously implanted with Ramos cells, and dosed with SGN-40 alone or in combination with CHOP as described above. In addition, prednisone steroid was administered alone (0.15 mg/kg, qld x 5 po) or in combination with SGN-40 (4.0 mg/kg, q4d x 4 ip).

[2] = biological target: CD40 immobilized on microassay plates (UniProt P25942 21-193, limits assumed); experiment: serially diluted antibody on CD40 immobilized on microassay plates
Description: (§1) Antibodies constructed using these variant light and heavy chain variable domains were analyzed for binding activity. Each antibody was diluted to equivalent concentrations, and then serially diluted. The diluted antibodies were assayed for binding to CD40 immobilized on microassay plates.

[3] = biological target: CD40 (Homo sapiens, UniProt P25942); experiment: Binding of variant antibodies to CD40 immobilized on microassay plates; set-up: Binding Data 1 / Binding Data 2 / Binding Data 3: unit not given here; settings: for binding activity compared with the parent murine antibody: in words
Description: as §1, with “plates. Affinity binding data for the variant antibodies are shown below in Table 3.” for “plates.”

[4] = affinity binding data, serially diluted antibody on immobilized CD40

Sequence of CD40 immobilized on microassay plates (P25942 21-193 limits assumed): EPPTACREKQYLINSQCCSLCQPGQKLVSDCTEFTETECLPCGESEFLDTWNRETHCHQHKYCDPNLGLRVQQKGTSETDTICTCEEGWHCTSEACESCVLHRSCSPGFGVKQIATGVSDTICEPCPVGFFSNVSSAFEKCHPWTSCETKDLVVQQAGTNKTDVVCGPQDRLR
Sequence of CD40 (P25942 21-277): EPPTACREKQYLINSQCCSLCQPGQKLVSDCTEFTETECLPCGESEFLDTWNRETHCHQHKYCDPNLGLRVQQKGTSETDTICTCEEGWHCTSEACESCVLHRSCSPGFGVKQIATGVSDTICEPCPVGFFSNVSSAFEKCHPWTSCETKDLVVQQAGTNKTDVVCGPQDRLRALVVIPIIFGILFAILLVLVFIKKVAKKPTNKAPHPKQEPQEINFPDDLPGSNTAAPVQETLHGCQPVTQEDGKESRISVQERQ

Binding Data 2 [2]	Binding Data 1 [3, 4]	Binding Data 2 [3, 4]	Molecule	effect on tumor growth, administered alone ([1]; CHOP single course, prednisone 0.15 mg/kg p.o. q1d x 5)	efficacy in combination with humanized CD40 antibody (SGN-40) ([1]; SGN-40 4 mg/kg i.p. q4d x 4 plus CHOP or prednisone)	binding activity compared with the parent murine antibody [3]
			C[C@]12C=CC(=O)C=C1CC[C@@H]1[C@@H]2C(=O)C[C@@]2(C)[C@H]1CC[C@]2(O)C(=O)CO [prednisone]	little effect	greater efficacy	
1.03	0.96 and 0.67		hu sgn-18 (antibody, V domains shown) VH: EVQLVESGGGLVQPGGSLRLSCAASGYSFTGYYIHWVRQAPGKGLEWVARVIPNNGGTSYNQKFKGRATLSVDNSKNTAYLQMNSLRAEDTAVYYCAREGIYWWGQGTLVTVS VL: DIQMTQSPSSLSASVGDRVTITCRSSQSLVHSNGNTFLHWYQQKPGKAPKLLIYTVSNRFSGVPSRFSGSGSGTDFTLTISSLQPEDFATYFCSQTTHVPWTFGQGTKVEIKR			approaching that of the parent murine antibody; also recorded: more closely approaching that of the parent murine antibody
		1.82 and 1.83	hu sgn-16: humanized CD40 antibody variant, heavy SEQ ID NO: 9 (F68A I69L R72V), light SEQ ID NO: 14 (antibody, V domains shown) VH: EVQLVESGGGLVQPGGSLRLSCAASGYSFTGYYIHWVRQAPGKGLEWVARVIPNNGGTSYNQKFKGRATLSVDNSKNTLYLQMNSLRAEDTAVYYCAREGIYWWGQGTLVTVS VL: DIQMTQSPSSLSASVGDRVTITCRSSQSLVHSNGNTFLHWYQQKPGKAPKLLIYTVSNRFSGVPSRFSGSGSGTDFTLTISSLQPEDFATYYCSQTTHVPWTFGQGTKVEIKR			
0.92	1.02 and 1.06		hu sgn-26 (antibody, V domains shown) VH: EVQLVESGGGLVQPGGSLRLSCAASGYSFTGYYIHWVRQAPGKGLEWVARVIPNAGGTSYNQKFKGRFTLSVDNSKNTAYLQMNSLRAEDTAVYYCAREGIYWWGQGTLVTVS VL: DIQMTQSPSSLSASVGDRVTITCRSSQSLVHSNGNTFLHWYQQKPGKAPKLLIYTVSNRFSGVPSRFSGSGSGTDFTLTISSLQPEDFATYFCSQTTHVPWTFGQGTKVEIKR			approaching that of the parent murine antibody; also recorded: more closely approaching that of the parent murine antibody; also recorded: best performance
0.9			hu sgn-23 (antibody, V domains shown) VH: EVQLVESGGGLVQPGGSLRLSCAASGYSFTGYYIHWVRQAPGKGLEWVARVIPNQGGTSYNQKFKGRFTLSVDNSKNTAYLQMNSLRAEDTAVYYCAREGIYWWGQGTLVTVS VL: DIQMTQSPSSLSASVGDRVTITCRSSQSLVHSNGNTFLHWYQQKPGKAPKLLIYTVSNRFSGVPSRFSGSGSGTDFTLTISSLQPEDFATYYCSQTTHVPWTFGQGTKVEIKR			approaching that of the parent murine antibody
0.84	1.44 and 1.41 and 1.80 and 0.93		hu sgn-22 (antibody, V domains shown) VH: EVQLVESGGGLVQPGGSLRLSCAASGYSFTGYYIHWVRQAPGKGLEWVARVIPNAGGTSYNQKFKGRFTLSVDNSKNTAYLQMNSLRAEDTAVYYCAREGIYWWGQGTLVTVS VL: DIQMTQSPSSLSASVGDRVTITCRSSQSLVHSNGNTFLHWYQQKPGKAPKLLIYTVSNRFSGVPSRFSGSGSGTDFTLTISSLQPEDFATYYCSQTTHVPWTFGQGTKVEIKR			approaching that of the parent murine antibody
1.4	1.04 and 1.03 and 0.94 and 0.83		hu sgn-27 (antibody, V domains shown) VH: EVQLVESGGGLVQPGGSLRLSCAASGYSFTGYYIHWVRQAPGKGLEWVARVIPNQGGTSYNQKFKGRFTLSVDNSKNTAYLQMNSLRAEDTAVYYCAREGIYWWGQGTLVTVS VL: DIQMTQSPSSLSASVGDRVTITCRSSQSLVHSNGNTFLHWYQQKPGKAPKLLIYTVSNRFSGVPSRFSGSGSGTDFTLTISSLQPEDFATYFCSQTTHVPWTFGQGTKVEIKR			approaching that of the parent murine antibody; also recorded: more closely approaching that of the parent murine antibody
